Source: patent publication US20220096653A1, “CONJUGATE COMPRISING LIGAND AND CEACAM5 ANTIBODY FAB FRAGMENT” (ASTELLAS PHARMA INC., priority 2019, published 2022)
Where two headings read alike, the source gives them in different places.

Assays:
[1] = parameters: species or system mice (BALB/c or BALB/c nu/nu); details: mouse, in vivo
Experimental: (§1) A Gd-labeled conjugate of the conjugate containing a peptide linker produced in one of the above Examples was administered from the tail vein of mice (BALB/c or BALB/c nu/nu) so that the protein mass was 0.02 mg (100 μL) per animal. After about 24 hours, the mice were sacrificed and the kidneys were removed, and the amount of Gd in the kidneys was measured using ICP-MS. The present test was carried out in 3 cases in each group, the mean value of the 3 cases was calculated, and the amount of Gd contained per kidney after administration was shown as a percentage (% of dose/tissue) of the total amount of Gd administered.
Based on the amount of Gd contained in the kidneys of the control conjugate, the proportion of decrease in the amount of Gd contained in the kidneys of each of the conjugates having a peptide linker was determined.

[2] = parameters: species or system mice (BALB/c nu/nu); details: mouse, in vivo
Experimental: A Gd-labeled conjugate of the conjugate containing a peptide linker produced in one of the above Examples was administered from the tail vein of the tumor-bearing mice so that the protein mass was 0.02 mg (100 μL) per animal. As the tumor-bearing mice used in the present Example, mice (BALB/c nu/nu) that were in a tumor-bearing state brought about by transplanting human breast cancer cell line MDA-MB-468 (ATCC(registered trademark); HTB-132) at 5.0×10^6 cells/mouse subcutaneously on the back before administration of the sample were used. 24 hours after administration of the sample, the mice were sacrificed, the kidneys and the tumor were removed, and the amounts of Gd in the kidneys and in the tumor were measured using ICP-MS. The present test was carried out in 3 cases in each group, and the mean value of the 3 cases was calculated. The amount of Gd contained per kidney after administration was shown as a percentage of the amount of Gd administered (% of dose/tissue), and the amount of Gd contained per g of tumor tissue was shown as a percentage of the total amount of Gd administered (% of dose/g).

[3] = molecular target: human cancer-specific MUC1 peptide; assay: ELISA binding activity of anti-human MUC1 antibody Fab^5 fragment conjugates (Example 6-1); details: each conjugate run in duplicate; Table 52; read-out: EC50
Experimental: Each anti-human MUC1 antibody Fab^5 fragment conjugate prepared by the method of Example 5 was subjected to ELISA to evaluate the binding activity thereof to human cancer-specific MUC1. In the present test, 20×PBS/Tween 20 Buffer (Thermo Fisher Scientific Inc., 28352) diluted 20-fold with distilled water was used as a wash liquid. In addition, for bovine serum albumin (BSA) used in the present test, 30% Bovine Serum Albumin solution (Sigma-Aldrich, Inc., A9576-50ML) was added in an appropriate proportion for use. A human cancer-specific MUC1 peptide (PTL 1) at 0.5 μmol/L was added to a Nunc MaxiSorp White 384 plate (Nunc, 460372) at 30 μL per well, and the plate was incubated overnight at 4° C. for immobilization. The MUC1 peptide was removed by reverse centrifugation, and then blocking was carried out by adding a PBS/Tween 20 buffer containing 5.0% BSA. Thereafter, the blocking solution was removed by reverse centrifugation, a solution of each anti-human MUC1 antibody Fab^5 fragment conjugate (Ex-No. 104, 108, or 112) described above at about 10000 ng/mL was diluted in 14 steps by 3-fold dilution using a PBS/Tween 20 buffer containing 1.0% BSA, and 30 μL was added per well and incubated at room temperature for 60 minutes. The plate was washed 3 times with a PBS/Tween 20 buffer, and Horseradish Peroxidase-labeled goat anti-human IgK antibody (Southern Biotechnology Associates, Inc.) diluted 10000-fold using a PBS/Tween 20 buffer containing 5.0% BSA was added at 30 μL per well and incubated at room temperature for 30 minutes. The plate was washed 3 times with a PBS/Tween 20 buffer, and ECL Prime Western Blotting DETECTION Reagent (GE Healthcare, RPN2232) as a substrate was added at 30 μL per well. The substrate was incubated at room temperature for 15 minutes, and then a signal value thereof was measured using an Envision counter (PerkinElmer, Inc.).
The test for each antibody was carried out in duplicate, and the EC50 value was calculated using a 4-parameter logistic curve model.

[4] = Kidney accumulation evaluation test of Gd-labeled conjugates, normal mice (Example 4-1); details: for Proportion of decrease (amount of Gd contained in the kidneys): based on control conjugate Ex-No. 47, about 24 hours; for % of dose/tissue (amount of Gd contained per kidney): tail vein, 0.02 mg protein per animal, about 24 hours, ICP-MS, mean of 3 cases
Experimental: as §1
Based on the percentage of the control conjugate (% of dose/tissue), the proportion of decrease in the amount of Gd contained in the kidneys of each of the conjugates having a peptide linker was determined and shown in Table 28.

[5] = mouse, in vivo
Experimental: as §1

[6] = parameters: species or system mice (BALB/c nu/nu); details: mouse, in vivo; remark: listed apart in the source
Experimental: A Gd-labeled conjugate of the conjugate containing a peptide linker produced in one of the above Examples was administered from the tail vein of tumor-bearing mice so that the protein mass was 0.02 mg (100 μL) per animal. As the tumor-bearing mice used in the present Example, mice (BALB/c nu/nu) that were in a tumor-bearing state brought about by transplanting human colorectal cancer cell line LS174T cells (ATCC(registered trademark); CL-188) at 2.0 to 5.0×10^6 cells/mouse subcutaneously on the back before administration of the sample were used. 24 hours after administration of the sample, the mice were sacrificed, the kidneys and the tumor were removed, and the amounts of Gd in the kidneys and in the tumor were measured using ICP-MS. The present test was carried out in 3 cases in each group, and the mean value of the 3 cases was calculated. The amount of Gd contained per kidney after administration was shown as a percentage of the amount of Gd administered (% of dose/tissue), and the amount of Gd contained per g of tumor tissue was shown as a percentage of the total amount of Gd administered (% of dose/g).

[7] = parameters: species or system mice (BALB/c or BALB/c nu/nu); details: mouse, in vivo; remark: listed apart in the source
Experimental: as §1

Chain of human cancer-specific MUC1 peptide (as listed by the source): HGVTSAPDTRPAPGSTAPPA

B1: [Gd/DOTA-NH—CH2-(1,4-Ph)-NH—C(═O)-Met-Ile-NH—(CH2)2-(A-4 and/or A-5)]p-Fab^5 (conjugate)
heavy: QVQLVQSGAEVKKPGASVKVSCKASGYTFTNYGLSWVRQAPGQGLEWMGENHPGSGIIYHNEKFRGRVTLTADRSTSTAYMELSSLRSEDTAVYYCARSSGTRGFDYWGQGTLVTVSSASTKGPSVFPLAPSSKSTSGGTAALGCLVKDYFPEPVTVSWNSGALTSGVHTFPAVLQSSGLYSLSSVVTVPSSSLGTQTYICNVNHKPSNTKVDKKVEPKSCD
light: DVVMTQTPLSLSVTPGQPASISCRSSQSIVHSNGNTYLEWYLQKPGQSPQLLIYRVSNRFSGVPDRFSGSGSGTDFTLKISRVEAEDVGVYYCFQGSHGPWTFGQGTKLEIKRTVAAPSVFIFPPSDEQLKSGTASVVCLLNNFYPREAKVQWKVDNALQSGNSQESVTEQDSKDSTYSLSSTLTLSKADYEKHKVYACEVTHQGLSSPVTKSFNRGEC
modifications: non-natural residues
[1]
  Renal residual amount (normal mice) % of dose/tissue: 2.30 % of dose/tissue
  Renal residual amount (normal mice) Proportion of decrease: 93.03%
[2]
  Renal residual amount (tumor-bearing mice) % of dose/tissue: 3.17 % of dose/tissue
  Renal residual amount (tumor-bearing mice) Proportion of decrease: 90.87%
[3]
  EC50: 0.08 nM

B2: [Gd/4arm-DOTA-CH2-(1,4-Ph)-NH—C(═S)—NH—CH2-(1,3-Ph)-C(═O)-Met-Gly-Lys*-Z2(#S)]p-Fab^2 (conjugate)
heavy: EVQLVESGGGLVQPGGSLRLSCAASGFNIRDTYMHWVRQAPGKGLEWVARIDPANGNSRYVPKFQGRFTISADTSRNTAYLQMNSLRAEDTAVYYCAPFGYYVSDYAMAYWGQGTLVTVSSASTKGPSVFPLAPSSKSTSGGTAALGCLVKDYFPEPVTVSWNSGALTSGVHTFPAVLQSSGLYSLSSVVTVPSSSLGTQTYICNVNHKPSNTKVDKKVEPKSCD
light: DIQLTQSPSSLSASVGDRVTITCRAGESVDIFGVGFLHWYQQKPGKAPKLLIYRASNLESGIPSRFSGSGSRTDFTLTISSLQPEDFATYYCQQTNEDPYTFGQGTKVEIKRTVAAPSVFIFPPSDEQLKSGTASVVCLLNNFYPREAKVQWKVDNALQSGNSQESVTEQDSKDSTYSLSSTLTLSKADYEKHKVYACEVTHQGLSSPVTKSFNRGEC
[4]
  Proportion of decrease (amount of Gd contained in the kidneys): 72.9%
  % of dose/tissue (amount of Gd contained per kidney): 8.4 % of dose/tissue

B3: [Gd/DOTA]p-Fab^2 (conjugate)
heavy: EVQLVESGGGLVQPGGSLRLSCAASGFNIRDTYMHWVRQAPGKGLEWVARIDPANGNSRYVPKFQGRFTISADTSRNTAYLQMNSLRAEDTAVYYCAPFGYYVSDYAMAYWGQGTLVTVSSASTKGPSVFPLAPSSKSTSGGTAALGCLVKDYFPEPVTVSWNSGALTSGVHTFPAVLQSSGLYSLSSVVTVPSSSLGTQTYICNVNHKPSNTKVDKKVEPKSCD
light: DIQLTQSPSSLSASVGDRVTITCRAGESVDIFGVGFLHWYQQKPGKAPKLLIYRASNLESGIPSRFSGSGSRTDFTLTISSLQPEDFATYYCQQTNEDPYTFGQGTKVEIKRTVAAPSVFIFPPSDEQLKSGTASVVCLLNNFYPREAKVQWKVDNALQSGNSQESVTEQDSKDSTYSLSSTLTLSKADYEKHKVYACEVTHQGLSSPVTKSFNRGEC
[5]
  Renal residual amount (normal mice) % of dose/tissue: 31.33 % of dose/tissue
[6]
  Renal residual amount (tumor-bearing mice) Mean: 25.83 % of dose/tissue
[7]
  Renal residual amount (normal mice) Mean: 29.33 % of dose/tissue

B4: Ex-No 10: (Y—S1—X)p-Fab^2: Y Gd/DOTA; S1 bond; X -Met-Ile-Lys*-Z2(#N)— (conjugate)
heavy: EVQLVESGGGLVQPGGSLRLSCAASGFNIRDTYMHWVRQAPGKGLEWVARIDPANGNSRYVPKFQGRFTISADTSRNTAYLQMNSLRAEDTAVYYCAPFGYYVSDYAMAYWGQGTLVTVSSASTKGPSVFPLAPSSKSTSGGTAALGCLVKDYFPEPVTVSWNSGALTSGVHTFPAVLQSSGLYSLSSVVTVPSSSLGTQTYICNVNHKPSNTKVDKKVEPKSCD
light: DIQLTQSPSSLSASVGDRVTITCRAGESVDIFGVGFLHWYQQKPGKAPKLLIYRASNLESGIPSRFSGSGSRTDFTLTISSLQPEDFATYYCQQTNEDPYTFGQGTKVEIKRTVAAPSVFIFPPSDEQLKSGTASVVCLLNNFYPREAKVQWKVDNALQSGNSQESVTEQDSKDSTYSLSSTLTLSKADYEKHKVYACEVTHQGLSSPVTKSFNRGEC
[7]
  Renal residual amount (normal mice) % of dose/tissue: 20.10 % of dose/tissue
  Renal residual amount (normal mice) Proportion of decrease: 31.46%

B5: [Gd/DOTA-NH—CH2-(1,4-Ph)-NH—C(═O)-Met-Ile-NH—(CH2)2-(A-4 and/or A-5)]p-Fab^2 (conjugate)
heavy: EVQLVESGGGLVQPGGSLRLSCAASGFNIRDTYMHWVRQAPGKGLEWVARIDPANGNSRYVPKFQGRFTISADTSRNTAYLQMNSLRAEDTAVYYCAPFGYYVSDYAMAYWGQGTLVTVSSASTKGPSVFPLAPSSKSTSGGTAALGCLVKDYFPEPVTVSWNSGALTSGVHTFPAVLQSSGLYSLSSVVTVPSSSLGTQTYICNVNHKPSNTKVDKKVEPKSCD
light: DIQLTQSPSSLSASVGDRVTITCRAGESVDIFGVGFLHWYQQKPGKAPKLLIYRASNLESGIPSRFSGSGSRTDFTLTISSLQPEDFATYYCQQTNEDPYTFGQGTKVEIKRTVAAPSVFIFPPSDEQLKSGTASVVCLLNNFYPREAKVQWKVDNALQSGNSQESVTEQDSKDSTYSLSSTLTLSKADYEKHKVYACEVTHQGLSSPVTKSFNRGEC
[5]
  Renal residual amount (normal mice) % of dose/tissue: 2.43 % of dose/tissue
  Renal residual amount (normal mice) Proportion of decrease: 92.15%

B6: [Gd/DOTA-NH—CH2-(1,4-Ph)-NH—C(═O)-Met-Ile-NH—(CH2)2-(A-3)]p-Fab^2 (conjugate)
heavy: EVQLVESGGGLVQPGGSLRLSCAASGFNIRDTYMHWVRQAPGKGLEWVARIDPANGNSRYVPKFQGRFTISADTSRNTAYLQMNSLRAEDTAVYYCAPFGYYVSDYAMAYWGQGTLVTVSSASTKGPSVFPLAPSSKSTSGGTAALGCLVKDYFPEPVTVSWNSGALTSGVHTFPAVLQSSGLYSLSSVVTVPSSSLGTQTYICNVNHKPSNTKVDKKVEPKSCD
light: DIQLTQSPSSLSASVGDRVTITCRAGESVDIFGVGFLHWYQQKPGKAPKLLIYRASNLESGIPSRFSGSGSRTDFTLTISSLQPEDFATYYCQQTNEDPYTFGQGTKVEIKRTVAAPSVFIFPPSDEQLKSGTASVVCLLNNFYPREAKVQWKVDNALQSGNSQESVTEQDSKDSTYSLSSTLTLSKADYEKHKVYACEVTHQGLSSPVTKSFNRGEC
[5]
  Renal residual amount (normal mice) % of dose/tissue: 1.43 % of dose/tissue
  Renal residual amount (normal mice) Proportion of decrease: 95.38%

B7: [Gd/DOTA-NH—CH2-(1,4-Ph)-NH—C(═O)-Met-Ile-NH—(CH2)2—Z1(#N)]p-Fab^2 (conjugate)
heavy: EVQLVESGGGLVQPGGSLRLSCAASGFNIRDTYMHWVRQAPGKGLEWVARIDPANGNSRYVPKFQGRFTISADTSRNTAYLQMNSLRAEDTAVYYCAPFGYYVSDYAMAYWGQGTLVTVSSASTKGPSVFPLAPSSKSTSGGTAALGCLVKDYFPEPVTVSWNSGALTSGVHTFPAVLQSSGLYSLSSVVTVPSSSLGTQTYICNVNHKPSNTKVDKKVEPKSCD
light: DIQLTQSPSSLSASVGDRVTITCRAGESVDIFGVGFLHWYQQKPGKAPKLLIYRASNLESGIPSRFSGSGSRTDFTLTISSLQPEDFATYYCQQTNEDPYTFGQGTKVEIKRTVAAPSVFIFPPSDEQLKSGTASVVCLLNNFYPREAKVQWKVDNALQSGNSQESVTEQDSKDSTYSLSSTLTLSKADYEKHKVYACEVTHQGLSSPVTKSFNRGEC
[6]
  Renal residual amount (tumor-bearing mice) % of dose/tissue: 5.77 % of dose/tissue
  Renal residual amount (tumor-bearing mice) Proportion of decrease: 77.68%
[7]
  Renal residual amount (normal mice) % of dose/tissue: 2.60 % of dose/tissue
  Renal residual amount (normal mice) Proportion of decrease: 91.13%

B8: [Gd/4arm-DOTA-CH2-(1,4-Ph)-NH—C(═S)-Gly-Phe-Lys*-Z2(#N)]p-Fab^2 (conjugate)
heavy: EVQLVESGGGLVQPGGSLRLSCAASGFNIRDTYMHWVRQAPGKGLEWVARIDPANGNSRYVPKFQGRFTISADTSRNTAYLQMNSLRAEDTAVYYCAPFGYYVSDYAMAYWGQGTLVTVSSASTKGPSVFPLAPSSKSTSGGTAALGCLVKDYFPEPVTVSWNSGALTSGVHTFPAVLQSSGLYSLSSVVTVPSSSLGTQTYICNVNHKPSNTKVDKKVEPKSCD
light: DIQLTQSPSSLSASVGDRVTITCRAGESVDIFGVGFLHWYQQKPGKAPKLLIYRASNLESGIPSRFSGSGSRTDFTLTISSLQPEDFATYYCQQTNEDPYTFGQGTKVEIKRTVAAPSVFIFPPSDEQLKSGTASVVCLLNNFYPREAKVQWKVDNALQSGNSQESVTEQDSKDSTYSLSSTLTLSKADYEKHKVYACEVTHQGLSSPVTKSFNRGEC
[4]
  Proportion of decrease (amount of Gd contained in the kidneys): 68.0%
  % of dose/tissue (amount of Gd contained per kidney): 9.9 % of dose/tissue
